Primed or numbered codes have the meaning given here. Ends that are not written are not given here. FITC′ = fluorescein isothiocyanate label; Ahx = NCCCCCC(=O)O
B1: FIV capsid N-terminal domain (NTD) protein (domain or fragment)
chain: PIQTVNGVPQYVALDPKMVSIFMEKAREGLGGEEVQLWFTAFSANLTPTDMATLIMAAPGCAADKEILDESLKQLTAEYDRTHPPDAPRPLPYFTAAEIMGIGLTQEQQAEARFAPARMQCRAWYLEALGKLAAIKA
B2: BIV capsid N-terminal domain (NTD) protein (domain or fragment)
chain: PAITTQDGTPRFDPDLMKQLKIWSDATERNGVDLHAVNILGVITANLVQEEIKLLLNSTPKWRLDVQLIESKVREKENAHRTWKQHHPEAPKTDEIIGKGLSSAEQATLISVECRETFRQWVLQAAMEVAQAKHATPG
B3: MLV capsid N-terminal domain (NTD) protein (domain or fragment)
chain: PLRAGGNGQLQYWPFSSSDLYNWKNNNPSFSEDPGKLTALIESVLITHQPTWDDCQQLLGTLLTGEEKQRVLLEARKAVRGDDGRPTQLPNEVDAAFPLERPDWDYTTQAGRNHLVHYRQLLLAGLQNAGRS
B4: EIAV capsid N-terminal domain (NTD) protein (domain or fragment)
chain: PIMIDGAGNRNFRPLTPRGYTTWVNTIQTNGLLNEASQNLFGILSVDCTSEEMNAFLDVVPGQAGQKQILLDAIDKIADDWDNRHPLPNAPLVAPPQGPIPMTARFIRGLGVPRERQMEPAFDQFRQTYRQWIIEAMSEGIKVMIG

These binders were tested against T1, CPSF6_(276–290) peptide (human, N-terminal fluorescein isothiocyanate (FITC)-Ahx) (assay: fluorescence polarisation; 150 nM FITC-Ahx-labelled peptide mixed with increasing capsid NTD protein (2 μM to 2 mM) in 50 mM Tris-HCl pH 8.0, 50 mM NaCl, 384-well plates; one-site specific binding model; the EIAV constants are called apparent). Conditions: both partners purified.
T1 construct: also called CPSF6 peptide; fluorescently labeled CPSF6_(276–290) peptide; source: synthetic peptide (GenScript)
B1 was tested, and the Kd was over 4000 µM. B2 was tested, and the Kd was over 5000 µM. For B3, the Kd was over 5000 µM.

Each binder was assayed against T2, CPSF6_(276–290/F284A) peptide (human, F284A (stands in the printed letters)) in the same assay as above. Conditions: both partners purified.
T2 construct: cleavage and polyadenylation specificity factor 6 (CPSF6), human, residues 276-290 counted on the 551-residue isoform CPSF6[551], with F284A; source: synthetic peptide (GenScript)
Work on B1 yielded a Kd of over 7000 µM. B2 was tested, and the Kd was over 3000 µM. B4 gave a Kd of 466 µM.

Biological target: T1, CPSF6_(276–290) peptide
Assay: as above
Conditions: both partners purified
Remark: another data set of the same source
In the case of B1, the Kd is reported as over 2000 µM. In the case of B2, the Kd is reported as over 2000 µM. Work on B3 yielded a Kd of over 2000 µM.

Reference: article PMC7527728, “CPSF6-Dependent Targeting of Speckle-Associated Domains Distinguishes Primate from Nonprimate Lentiviral Integration” (mBio, 2020)
